Measurements from paper doi:10.1101/2023.06.06.543836.

Target: CXCL12 (chemokine (C-X-C motif) ligand 12) (UniProt P48061)
Assay: NMR titration

CXCL12 (chemokine (C-X-C motif) ligand 12), sequence (P48061 22-89): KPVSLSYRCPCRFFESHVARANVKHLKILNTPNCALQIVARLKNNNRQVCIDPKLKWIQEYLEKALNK

Question: Which Kd does the source give for “Ac-pep (synthetic peptide corresponding to the HMGB1 acidic IDR) (from UniProt P63158 186-214)” here?
Answer: The Kd was 0.2 µM.
